The DeepSol protein solubility set

Assay: soluble on expression in E. coli; label from the status in PepcDB or PDB records

Soluble on expression in E. coli, not soluble:
MGSDKIHHHHHHMAKQQFNKLIWLVDTIFRNAPVTFAEINRRWRAGDDNRSDIPLRTFHNHRQAIEEIFDINIECDKRNNTYYIADAEGMLGDKLKMWLLNSFSLNNVLQENVDMKNRIVFEEVPSGVQFMDLVIDAMRSGRVLAMEYQAYNWEHSKDVLLEPYFVKLFRHRWYLIGINREYKAFRSYSLDRIKRIALSEETFNFPRKFTPQDHFRDSFGIIRDENLLPQHTVLRTTISQAPYLRNLPLHSSQKEIAVTESYVDFELYISHTYDFIQELLSKGAAVEVLKPQSLRDKIKAEIQNMQTLYHL, MGSDKIHHHHHHMRALVLAAGKGTRMKSKIPKVLHPLSGRPMIEWVIETAGKVAQKVGVVLGFEAELVRKALPEWVDVFVQGEQLGTAHAVMCAKDFIEPGDDVLILYGDVPLISENTLKRMIEEHRKGADVTILVADLEDPSGYGRVIQDGDKYRIIEDTDLPEELKSVTTINTGFYVFSGDFLLRALPEIKNENAKGEYYLTDAVNFAEKVRVVRTDDLLEITGVNTRKTLVWLEEQLRMRKIEELLENGVTILDPATTYIHYSVEIGMDTVIYPMTFIEGKSRVGENCEIGPMTRIVDCEIGNNVKITRSECFKSVIEDDVSVGPFARLREGTILKKSSKIGNFVEIKKSTIGEGTKAQHLSYIGDAFVGKNVNVGAGTITCNYDGKKKNPTFIEDGAFIGSNSSLVAPVRIGKGALIGAGSVITEDVPPYSLGLGRARQVVKEGWVLKKRKEE, MTESTTSSPHDAVFKTFIFTPETARDFLEIHLPEPLRKLCNLQTLRLEPTSFIEKSLRAYYSDVLWSVETSDGDGYIYCVIEHQSSAEKNMAFRPMRYATAAMQSHLDKGYDRVPLVVPLLFYHGETSPYPYSLNWLDEFDDPQLARQLYTEAFPLVDITIVPDDEIMQHRRIALLELIQKHIRDHDLIGMVDRITTLLVRGFTNDSQLQTLFNYLLQCGDTSRFTRFIQEIAERSPLQKERLMTIAERLRQEGHQIGWQEGKLVGLQQGKLEGLQEGMHEQAIKIALRMLEQGIDRDQVLAATQLSEADLAANNH, MSDSNTSSLPRAAQLEPDAAPAVAVLQQALQWQVIFWSGEATDRDRMRWQSWLAADPAHARAWAQVQRTDEQLQTLASPAAEVLRSADARRCKARRTVLGMAGLLAGAGIMGCGLRQTAQWQMMMADDHTGYGERRNIELADGTQVTLGSATAIDVCYSAQARQLLLRTGEIFIVTAPDSADRPFLVQTTRGSVQALGTRFNVRESGEQIQVAVQDGAVAIRPAGMNPGDVVRLDAGQQTCFDHTKVEAAEALQISATAWTRGLLVAERMRLEDFLVELGRYRSGVLRCDPAVRDLIVSGVYSLDDTDQSLRLLAQALPVQVQTVTRWWTIVGPRPMK, MGSDKIHHHHHHMKTQYFSDVDETVITTTLSNGLRLQVVPRPAYHKSYAIMTTDYGSIDTQFAPDGKQMVTYPAGIAHFLEHKLFEKEDHDAFDLFGETGASANAFTSATKTSFLFSTTTQLTKNLQILLDFVQTPFFSKASVAKEQGIIGSEIQMYQDDPGWRGYAGLLENLFPNHPAHVDVAGTVASIAQITPEMLYTIHRVFYQPSNMTLIVVGNIDADAIMAFVAANQAAKQFPAPQAIVRGVHADLQTDDIVPYRQLEMPISRPKTLVGIKGQVAIPMTAEGWRYQLTIRLLLEVLFGDSSQLYQDWYDRGLIDDSFDFDFTNQRSFSYGLVGGDTDDPHALSDAIKHVLLNAATQPDLTRDRVALIKRASLGKYYAGLNGLNGVANQLSALSFGQASLFDFPEILSSITLADLQAMIDQVFQAKALTVLDMIPEAD, MQFSYVNPTMIHFGQGQIASIRRDIPKDHKVLVLYGGGSIKRNGVYDQVVEALSEHQWVEFSGVEPNPTKETLDKAVHIVKNQHIDFILAVGGGSVIDGSKYVAAAAFYEGDGWDILTGQHTVKQATPIGAILTLPATGSESNTGAVITKAETQDKLAFLSPAVQPRFAVLDPDVMKSLPERQLVNGLVDAWVHVCEQYLTLPTQAMVQEGYAEVLLRNLLALGADFVNRDNDAWRANLMWTANQALNGLIGTGVPQDWATHMIGHELTALWHVDHARSLAIVQPWLLRNQLKHKKAKLEQMGKNVFGLPQSDDLAEKTIAAIEAFYHQLNVATQFGEHGMAKEAAVDAVLQQLTAHGMHKLGEQGTIDLQESRKILENALY, MGSDKIHHHHHHMTFGLLHRWLTDMGMTISKNTLRNWLTKDKTYLDELVCVLKSIALEKDSIVNCDETWCKVRKYDHYKKCYIGVLVNKARKTAIFFYENGSCGRDVLTDFLGDAELKSIMSDGYNAYVFIGNELKLGRFKDTVHQVCMSHAKNKFVKASNQGGEPTAERFSEILKEFFMRDREYDDAGLTPKERFQERQSLETKELLIELRSLLDSEQSKDSEFRSRYYKEALNYLNRFRKEIFAYLDDGELPIDNNLAERTIRKLTTQRNNSLHYGSDAGAEMAATYHSVIGTVKLLGSSIWNFIGTFFKNIFNGCRDYVNMVPDKITLATSQC, TKDWDWNIEINLGHNKNKLKKLYKTKNAEGQFVEKPIIISDGTSIAGTAKRVLQPGYPCDTYYLKEWAGVNPENGAPQWYKTVENEDGTLSRQKTSNYSEADQVKCGSSSPDIFGGFSTVLRWKDIDLNAVFGYSVGGQIYNYSRQEYDSDGAYNDRNQMKLQKGWNRWEKPGDIATHPVASYSNTSKSNSSSSRYLEKNDYLKLRSLSIGYNLKLPQYYINNMRIFFTGENLFCVTNYSGVDPEIPASDGSVIGTALPSVYPTVRKFMFGLNLTF, MFSTGSGELCDSSAARAGGSMIHPILAKVTQNLTERSREARAAFIARSQAQEKAGKGRTSLSCGNLAHAVAASCSTEKKAILDFTRSNVAIVTSYNDMLSAHQPYQHYPDRIKMVLAEYGHTAQVAGGVPAMCDGVTQGQPGMDMSLFSRDLIAQATALSLSHNVFDATLLLGICDKIAPGQLMGALSYAHLPTAFMPAGLMATGISNEEKVDIRQKYAAGEVGKDALLNMECQAYHAPGTCTFYGTANTNQLVFEAMGLMLPGSAFVHPHSALRQALNDDATVKIASMTQGSAQYRPLYQVVTEKSLLNGIVALLASGGSTNHTIHMLAVARAAGILLTWQDISDLSDVVPLLAKVYPNGPADMNAFQQAGGVPALMKRLHESKLLHSDVTPVFGEFRDQLTLPELVDGELCWKACEGTRDAQVIAASGECFQTTGGTKMLNGNLGRAVIKVSAVKEEQRIIEAPAVVFQCQHQVEAAYQRGELNKDCIVVVTHNGPAANGMPELHKLMPILGNVQKAGFKVALVTDGRLSGASGKIPSAIHVSPEAVRGGAIGLVRDGDLLRLDCTTGTLENLTDMSHRQALALDTERDQQMWGRELFKVMRQAVSSAEQGASFIV, MAKPSDSADICQAPVQTAQAPLPKDSALDDLIGYAMRRAQLKLFQNLIGRLSAHDLRPAQFSALAIIEQTPGLMQADLAKALAIEPPQVVPLLNKLEERALAVRVRCKPDKRSYGIFLSKTGETLLRELKQIAVDSDLDSTSALDNQERNDLLRLLKKVYQS, MLLPWLFPQTKRNNFAAKVNSENQEKLLILRKEDASASSGQSELSLVQMGLKQVVASSFWLVFEFQHFKVGCNAARKFPVNGIANAQPQQCGTYRSHNGKLSIAIGHFCRIHQRAHTHFAIAKIAEFNPAVHCHHVVWHLFWRTHLGAIQLCV, EYSYQYNLRVEPGVSHQRANIGIDYQGMDWIIGPNYTAEQARIILRLDDQTRYVLQPEKRHYPVRVMNMTEPAILSLWHGDYYLTLGDKVGTNAYAIKVQ

Soluble on expression in E. coli, soluble:
MQWVKQLNVVFCTMLFSFSSYANLSDFKVATWNLQGSSAVNESKWNINVRQLLSGEQGADILMVQEAGSLPSSAVRTSRVIQHGGTPIEEYTWNLGTRSRPNMVYIYYSRLDVGANRVNLAIVSRRQADEAFIVHSDSSVLQSRPAVGIRIGTDVFFTVHALATGGSDAVSLIRNIFTTFTSSPSSPERRGYSWMVVGDFNRAPVNLEAALRQEPAVSENTIIIAPTEPTHRSGNILDYAILHDAHLPRREQARERIGASLMLNQLRSQITSDHFPVSFVHDR, MNLKDMEQNSAKAVVLLKAMANERRLQILCMLHNQELSVGELCAKLQLSQSALSQHLAWLRRDGLVTTRKEAQTVYYTLKSEEVKAMIKLLHSLYCEE, MSLRGRTSTLKVAILCFEKDRPKLEALKEILGRSYEVEFVDYSKDVWDDVLQYDCIVAYLASGIVVRGICGRLRGKWKDPAVIVLDKPLKHAVVMLGGHHGGNEVAKKLEEAGLKAVITTAMEFTEGYSVGVGFRKNATADEILEAIAMALEEVGGRMEEIRVISTVDAKRDSAIVEVANRLKRPLIFVRAEEINSMDIRETKAVKIGVKNVAEACAIYASNSGELILPKRVYGGVTVAIAWEGHHHHHH, MRYNQSDNKPFEEVLEASLSRRSILKGGLGISAMTAFGAFGLAGCNSSSSGTSASNGSGVSKAVLNFDSIPGSLTDAVSIPQGYTAQVLVPWGTPLNAQGSAWKNDGSNTSSDQLNALGMHHDGMHFFPLNDSTTDGLLCINHEYIDTSALHPNGPTVANGVRTIVDEVRKEINAHGVSVVRIQLEDNMWKLADTDPLNRRYTGATVMDLSGPVAHTALTVTRFSPDGSQARGTLNNCGNGYTPWGTYLTCEENWPGYFVNAGTRTEEQDRIGVDDKSTRYLWETLAGNSEERLDEFTRFNVAPTGTSSADDYRNEANGHGYIVEIDPYTQNSRAKKRTALGRFRHEGCAFGKLEAGKPVVFYSGHDSRFEYLYKFESAAAWDPADANPANRLATGDKYMDEGTLYVARFNEDSTGTWLPLTLDSVTTSGGTLADHFNSLAEIIINTAGAADLVGATPMDRPEWCSVDPFTGSVYLTLTNNTRRTDETNPANPRLNNKFGHVIRWDEGTSATDFTWDIFVFGSPANGDADTNRSGLNELNQFASPDGLAFDGRGILWIQTDNGADEVTSYTNDQMLAVVPSKLTNENGAQAVIGADNQAELKRFFVGPNGCEVTGFTISPDYKSLFVNIQHPGNWPYSDDAAQETPAGTTVRPRAATVVIRREDGGEIAVLEHHHHHH, MSLTFHEIRFPEDISYGSTGGPEFSTSIVQTNNGSEYRKVNLSYSRNKYNIMYNMKSEDQLLKLINFFYVHKGKAIGFRFKDWSDYKAKKEHIGIGNDKQKKFQIIKTYSIDQHSYIRKITKPVINTVKIYYDDIEKVDGFSVNFSNGQIEFNTPPHNGVTIYADYEFDVPVRFDSDYLPYSMDNYNEHNCNNIALIEIKTEGHHHHHH, MRTLKELERELQPRQHLWYFEYYTGNNVGLFMKMNRVIYSGQSDIQRIDIFENPDLGVVFALDGITMTTEKDEFMYHEMLAHVPMFLHPNPKKVLIIGGGDGGTLREVLKHDSVEKAILCEVDGLVIEAARKYLKQTSCGFDDPRAEIVIANGAEYVRKFKNEFDVIIIDSTDPTAGQGGHLFTEEFYQACYDALKEDGVFSAETEDPFYDIGWFKLAYRRISKVFPITRVYLGFMTTYPSGMWSYTFASKGIDPIKDFDPEKVRKFNKELKYYNEEVHVASFALPNFVKKELGLM, SNQLQQLQNPGESPPVHPFVAPLSYLLGTWRGQGEGEYPTIPSFRYGEEIRFSHSGKPVIAYTQKTWKLESGAPMHAESGYFRPRPDGSIEVVIAQSTGLVEVQKGTYNVDEQSIKLKSDLVGNASKVKEISREFELVDGKLSYVVRMSTTTNPLQPHLKAILDKL
